Target: human transient receptor potential vanilloid 1 (TRPV1) (human) (UniProt Q8NER1)
Sequence (Q8NER1 whole entry): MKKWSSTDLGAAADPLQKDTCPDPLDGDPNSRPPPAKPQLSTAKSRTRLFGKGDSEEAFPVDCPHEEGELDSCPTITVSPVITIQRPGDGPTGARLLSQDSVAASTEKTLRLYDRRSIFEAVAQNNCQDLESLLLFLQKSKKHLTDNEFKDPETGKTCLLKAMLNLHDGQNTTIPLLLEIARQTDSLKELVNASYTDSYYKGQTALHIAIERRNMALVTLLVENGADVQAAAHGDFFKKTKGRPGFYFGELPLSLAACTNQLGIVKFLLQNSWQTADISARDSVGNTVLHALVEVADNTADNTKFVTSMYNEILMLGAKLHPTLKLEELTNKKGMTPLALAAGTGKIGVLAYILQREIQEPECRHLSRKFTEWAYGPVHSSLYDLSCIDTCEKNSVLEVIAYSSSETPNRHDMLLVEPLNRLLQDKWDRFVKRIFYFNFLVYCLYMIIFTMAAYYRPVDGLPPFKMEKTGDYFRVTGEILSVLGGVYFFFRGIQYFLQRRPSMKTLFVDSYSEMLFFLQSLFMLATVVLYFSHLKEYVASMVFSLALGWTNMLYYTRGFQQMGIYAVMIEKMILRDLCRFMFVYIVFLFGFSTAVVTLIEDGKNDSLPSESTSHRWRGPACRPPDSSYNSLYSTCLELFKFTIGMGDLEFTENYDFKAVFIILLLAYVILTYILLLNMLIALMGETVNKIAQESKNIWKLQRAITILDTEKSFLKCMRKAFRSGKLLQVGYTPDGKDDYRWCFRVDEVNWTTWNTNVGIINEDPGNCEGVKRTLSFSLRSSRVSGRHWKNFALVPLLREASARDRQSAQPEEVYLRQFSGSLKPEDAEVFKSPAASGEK

Substance: exendin-4 (from UniProt P26349 48-87) (peptide)
- IC50 of inhibition of the CAP (100 nM)-induced calcium response in CHO K1 cells expressing human TRPV1: 62.2 nM

Source: PMC11118710, “GLP-1 and Its Derived Peptides Mediate Pain Relief Through Direct TRPV1 Inhibition Without Affecting Thermoregulation” (Research Square, 2024)
